Measurements from US20240092890A1 (JUNTENDO EDUCATIONAL FOUNDATION, published 2024).

B1: Antibody 20 (bispecific antibody)
heavy: QVQLVQSGGGVVQPGRSLRLSCKASGYTFTRYTMHWVRQAPGKGLEWIGYINPSRGYTNYNQKVKDRFTISRDNSKNTAFLQMDSLRPEDTGVYFCARYYDDHYSLDYWGQGTPVTVSSGGGGSGGGGSGGGGSDIQMTQSPSSLSASVGDRVTITCSASSSVSYMNWYQQTPGKAPKRWIYDTSKLASGVPSRFSGSGSGTDYTFTISSLQPEDIATYYCQQWSSNPFTFGQGTKLQITRGGGGSQVQLQQSGAELVKPGSSVKISCKASGYTFTRNFIHWIKQQPGNGLEWIGWIFPGDGDTEYNQKFNGKATLTADKSSSTAYMQLSSLTSEDSAVYFCARGNYNYEYFDYWGQGVMVTVSSASTKGPSVFPLAPSSKSTSGGTAALGCLVKDYFPEPVTVSWNSGALTSGVHTFPAVLQSSGLYSLSSVVTVPSSSLGTQTYICNVNHKPSNTKVDKRVEPKSCHHHHHH
light: DIQMTQSPASLSASLGETVSIECLASEDIYSYLAWYQQKPGKSPQLLIFAANRLQDGVPSRFSGSGSGTQFSLKISGMQPEDEGDYFCLQGSKFPYTFGPGTKLELNRTVAAPSVFIFPPSDEQLKSGTASVVCLLNNFYPREAKVQWKVDNALQSGNSQESVTEQDSKDSTYSLSSTLTLSKADYEKHKVYACEVTHQGLSSPVTKSFNRGEC
notes: hOKT3 scFv fused to the N-terminus of the B3 Fab heavy chain
B2: Antibody 22 (bispecific antibody)
heavy: QVQLVQSGGGVVQPGRSLRLSCKASGYTFTRYTMHWVRQAPGKGLEWIGYINPSRGYTNYNQKVKDRFTISRDNSKNTAFLQMDSLRPEDTGVYFCARYYDDHYSLDYWGQGTPVTVSSGGGGSGGGGSGGGGSDIQMTQSPSSLSASVGDRVTITCSASSSVSYMNWYQQTPGKAPKRWIYDTSKLASGVPSRFSGSGSGTDYTFTISSLQPEDIATYYCQQWSSNPFTFGQGTKLQITRGGGGSQVQLQQSGAELVKPGSSVKISCKASGYTFTRNFIHWIKQQPGNGLEWIGWIFPGDGDTEYNQKFNGKATLTADKSSSTAYMQLSSLTSEDSAVYFCARGNYNYEYFDYWGQGVMVTVSSASTKGPSVFPLAPSSKSTSGGTAALGCLVKDYFPEPVTVSWNSGALTSGVHTFPAVLQSSGLYSLSSVVTVPSSSLGTQTYICNVNHKPSNTKVDKRVEPKSCAAAGGGQPREPQVYTLPPSREEMTKNQVSLTCLVKGFYPSDIAVEWESNGQPENNYKTTPPVLDSDGSFFLYSKLTVDKSRWQQGNVFSCSVMHEALHNHYTQKSLSLSPGK
light: B1 light
notes: hOKT3 scFv, B3 Fab heavy chain and CH3 domain in one polypeptide, with the B3 light chain
B3: Antibody 26 (bispecific antibody)
heavy: B1 heavy
light: QVQLVQSGGGVVQPGRSLRLSCKASGYTFTRYTMHWVRQAPGKGLEWIGYINPSRGYTNYNQKVKDRFTISRDNSKNTAFLQMDSLRPEDTGVYFCARYYDDHYSLDYWGQGTPVTVSSGGGGSGGGGSGGGGSDIQMTQSPSSLSASVGDRVTITCSASSSVSYMNWYQQTPGKAPKRWIYDTSKLASGVPSRFSGSGSGTDYTFTISSLQPEDIATYYCQQWSSNPFTFGQGTKLQITRGGGGSDIQMTQSPASLSASLGETVSIECLASEDIYSYLAWYQQKPGKSPQLLIFAANRLQDGVPSRFSGSGSGTQFSLKISGMQPEDEGDYFCLQGSKFPYTFGPGTKLELNRTVAAPSVFIFPPSDEQLKSGTASVVCLLNNFYPREAKVQWKVDNALQSGNSQESVTEQDSKDSTYSLSSTLTLSKADYEKHKVYACEVTHQGLSSPVTKSFNRGEC
notes: B3 Fab with hOKT3 scFv fused to the N-termini of both the heavy and the light chain
B4: Antibody 23 (bispecific antibody)
heavy: QVQLQQSGAELVKPGSSVKISCKASGYTFTRNFIHWIKQQPGNGLEWIGWIFPGDGDTEYNQKFNGKATLTADKSSSTAYMQLSSLTSEDSAVYFCARGNYNYEYFDYWGQGVMVTVSSASTKGPSVFPLAPSSKSTSGGTAALGCLVKDYFPEPVTVSWNSGALTSGVHTFPAVLQSSGLYSLSSVVTVPSSSLGTQTYICNVNHKPSNTKVDKRVEPKSCHHHHHH
light: B3 light
notes: B3 Fab with hOKT3 scFv fused to the light chain N-terminus
B5: Antibody 24 (bispecific antibody, human IgG1, kappa, L234A L235A)
heavy: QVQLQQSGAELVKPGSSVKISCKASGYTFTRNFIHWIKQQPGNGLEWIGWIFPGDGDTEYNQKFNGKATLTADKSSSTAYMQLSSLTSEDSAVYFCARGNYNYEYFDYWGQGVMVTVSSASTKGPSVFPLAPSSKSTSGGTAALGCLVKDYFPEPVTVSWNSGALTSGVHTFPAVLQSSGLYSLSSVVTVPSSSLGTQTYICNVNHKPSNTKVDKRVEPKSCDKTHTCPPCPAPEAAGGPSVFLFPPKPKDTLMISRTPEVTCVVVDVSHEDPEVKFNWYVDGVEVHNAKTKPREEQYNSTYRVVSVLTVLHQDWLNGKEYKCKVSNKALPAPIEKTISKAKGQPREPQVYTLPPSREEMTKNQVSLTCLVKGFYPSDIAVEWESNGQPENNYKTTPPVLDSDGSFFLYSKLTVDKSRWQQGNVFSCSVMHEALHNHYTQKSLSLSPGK
light: B3 light
notes: B3 IgG with hOKT3 scFv fused to the light chain N-terminus
B6: Antibody 27 (bispecific antibody)
heavy: QVQLQQSGAELVKPGSSVKISCKASGYTFTRNFIHWIKQQPGNGLEWIGWIFPGDGDTEYNQKFNGKATLTADKSSSTAYMQLSSLTSEDSAVYFCARGNYNYEYFDYWGQGVMVTVSSASTKGPSVFPLAPSSKSTSGGTAALGCLVKDYFPEPVTVSWNSGALTSGVHTFPAVLQSSGLYSLSSVVTVPSSSLGTQTYICNVNHKPSNTKVDKRVEPKSCGGGGSQVQLVQSGGGVVQPGRSLRLSCKASGYTFTRYTMHWVRQAPGKGLEWIGYINPSRGYTNYNQKVKDRFTISRDNSKNTAFLQMDSLRPEDTGVYFCARYYDDHYSLDYWGQGTPVTVSSGGGGSGGGGSGGGGSDIQMTQSPSSLSASVGDRVTITCSASSSVSYMNWYQQTPGKAPKRWIYDTSKLASGVPSRFSGSGSGTDYTFTISSLQPEDIATYYCQQWSSNPFTFGQGTKLQITRHHHHHH
light: B3 light
notes: B3 Fab with hOKT3 scFv at the heavy chain C-terminus and at the light chain N-terminus
B7: Antibody 28 (bispecific antibody)
chain 1: QVTLKESGPVLVKPTETLTLTCTVSGYSITSDYAWNWIRQPPGKALEWLAYISYSGSTSYNPSLKSRLSITKDTSKSQVVLTMTNMDPVDTATYYCARDPPYYYGSWGQGTTVTVSSASTKGPSVFPLAPSSKSTSGGTAALGCLVKDYFPEPVTVSWNSGALTSGVHTFPAVLQSSGLYSLSSVVTVPSSSLGTQTYICNVNHKPSNTKVDKRVEPKSCGGGGSQVQLVQSGGGVVQPGRSLRLSCKASGYTFTRYTMHWVRQAPGKGLEWIGYINPSRGYTNYNQKVKDRFTISRDNSKNTAFLQMDSLRPEDTGVYFCARYYDDHYSLDYWGQGTPVTVSSGGGGSGGGGSGGGGSDIQMTQSPSSLSASVGDRVTITCSASSSVSYMNWYQQTPGKAPKRWIYDTSKLASGVPSRFSGSGSGTDYTFTISSLQPEDIATYYCQQWSSNPFTFGQGTKLQITRHHHHHH
chain 2: DVVMTQSPLSLPVTLGQPASISCKSSQSLLDSDGKTYLNWLQQRPGQSPRRLIYLVSKLDSGVPDRFSGSGSGTDFTLKISRVEAEDVGVYHCWQGTHFPYTFGGGTKVEIKRTVAAPSVFIFPPSDEQLKSGTASVVCLLNNFYPREAKVQWKVDNALQSGNSQESVTEQDSKDSTYSLSSTLTLSKADYEKHKVYACEVTHQGLSSPVTKSFNRGEC
notes: format not described

molecular target: T1, Ins 5 type mutant CALR protein on UT-7/TPO CALR Ins 5 cells (UniProt P27797 18-417); experiment: cell-based or functional assay
T1 sequence (looked up): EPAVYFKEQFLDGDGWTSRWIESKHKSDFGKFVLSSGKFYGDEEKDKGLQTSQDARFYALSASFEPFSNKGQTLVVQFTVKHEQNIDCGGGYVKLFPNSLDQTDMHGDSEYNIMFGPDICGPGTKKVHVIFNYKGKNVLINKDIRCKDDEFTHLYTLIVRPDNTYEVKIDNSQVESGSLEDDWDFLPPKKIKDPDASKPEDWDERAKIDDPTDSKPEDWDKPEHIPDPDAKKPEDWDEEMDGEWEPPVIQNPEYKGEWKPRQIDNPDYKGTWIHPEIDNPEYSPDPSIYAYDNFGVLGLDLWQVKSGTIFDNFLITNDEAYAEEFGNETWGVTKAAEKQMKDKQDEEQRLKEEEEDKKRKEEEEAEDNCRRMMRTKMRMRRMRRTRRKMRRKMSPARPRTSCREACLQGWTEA

| Binder | EC50 of cytotoxic activity (calcein release, T-LAK effector cells) [pM] |
| --- | --- |
| B1 | 1460 |
| B2 | 101 |
| B3 | 39 |
| B4 | 370 |
| B5 | 138 |
| B6 | 36 |
| B7 | 5430 |

Molecular target: T2, protein having an Fc region and a His-tag added to the N-terminus of SEQ ID NO: 1
T2 construct: also called mutant CALR protein (antigen of the BLItz measurement); not shown: Fc region and His-tag at the N-terminus
T2 chain: RRMMRTKMRMRRM
Experiment: BLItz biolayer interferometry, Fc/His-SEQ ID NO: 1 protein on the biosensor
Experimental: As another method, measurements were performed using the molecular interaction analysis system BLItz (ForteBio), which applies biolayer interferometry […]. Specifically, a protein having an Fc region and a His-tag added to the N-terminus of SEQ ID NO: 1 was immobilized at a concentration of 0.1 mg/mL using the Anti-Penta-HIS or ProteinA biosensor (ForteBio). Subsequently, the antibodies 1 to 114 made were prepared at a concentration of 500, 100, and 50 nM and reacted to acquire the dissociation constant.

| Binder | Kd [µM] |
| --- | --- |
| B1 | 0.0124 |
| B2 | < 1e-06 |
| B3 | 0.0123 |
| B4 | 0.00679 |
| B5 | 0.000531 |
| B6 | 0.0136 |
| B7 | 1480 |
